# Like-named read-outs stand apart in the source and are kept apart here.
# Tests used:
# [1] = target: D3H44 Fab heavy chain L124E_K145M_Q179E; assay: LCCA, SPR of light chain tags; L1:L2 DNA 1:3 normalized to 1:1; competitor m8
# [2] = target: D3H44 Fab heavy chain L124R_S186K; assay: as above
# [3] = target: D3H44 Fab heavy chain L124R_S186R; assay: as above
# [4] = target: D3H44 Fab heavy chain L124R_S186R (H1 of LCCA sets 9516 and 9515)
# [5] = target: D3H44 Fab heavy chain L124R_S186R (H1 of LCCA sets 9516 and 9515); remark: listed apart in the source
# [6] = target: D3H44 Fab heavy chain L124E_L143D_K145T (H1 of LCCA sets 9214, 9217, 9216, 9219, 9220, 9225, 9228, 9229); assay: LCCA: H1 co-expressed with L1 and L2 (DNA 333:250:749 ng), His-tag capture on SPR chip, light chain tags detected with anti-HA/anti-FLAG; competitor L1 Q124K_V133G_S176R_T178K
# [7] = target: tissue factor (TF) antigen (UniProt P13726); assay: SPR, His-captured Fab, TF as analyte, 1:1 fit; estimated (*) from a Fab differing only in L chain tag
# [8] = target: tissue factor (TF) antigen (UniProt P13726); assay: SPR, His-captured Fab, TF as analyte; against wild-type D3H44 Fab; KD of this row is an estimated (*) value
# [9] = target: D3H44 Fab heavy chain L124E_K145T_Q179E; assay: LCCA, SPR of light chain tags; L1:L2 DNA 1:3 normalized to 1:1; competitor m8
# [10] = target: D3H44 Fab heavy chain L124E_K145T_Q179E; assay: LCCA, SPR of light chain tags; L1:L2 DNA 1:3 normalized to 1:1; competitor m9
# [11] = target: D3H44 Fab heavy chain L124R_S186R; assay: as above
# [12] = target: D3H44 Fab heavy chain L124E_L143E_K145M (H1 of LCCA sets 9269, 9266, 9267, 9260, 9262, 9263); assay: LCCA: H1 co-expressed with L1 and L2 (DNA 333:250:749 ng), His-tag capture on SPR chip, light chain tags detected with anti-HA/anti-FLAG; competitor L1 Q124K_V133G_S176R_T178K
# [13] = target: D3H44 Fab heavy chain L124E_L143E_K145M (H1 of LCCA sets 9269, 9266, 9267, 9260, 9262, 9263); assay: LCCA: H1 co-expressed with L1 and L2 (DNA 333:250:749 ng), His-tag capture on SPR chip, light chain tags detected with anti-HA/anti-FLAG; competitor L1 Q124K_V133G_S176R_T178R
# [14] = target: D3H44 Fab heavy chain L124R_D146N_Q179K; assay: LCCA, SPR of light chain tags; L1:L2 DNA 1:3 normalized to 1:1; competitor m8
# [15] = target: D3H44 Fab heavy chain L124R_Q179K; assay: as above
# [16] = target: D3H44 Fab heavy chain L124R_D146N_Q179K; assay: LCCA, SPR of light chain tags; L1:L2 DNA 1:3 normalized to 1:1; competitor m9
# [17] = target: D3H44 Fab heavy chain L124E_L143E_K145T; assay: LCCA, SPR of light chain tags; L1:L2 DNA 1:3 normalized to 1:1; competitor m10
# [18] = target: D3H44 Fab heavy chain L124R_S186K; assay: as above
# [19] = target: D3H44 Fab heavy chain L124R_D146N_Q179K (H1 of LCCA sets 9358, 9359, 9357, 9351, 9352, 9353, 9354, 9350); assay: LCCA: H1 co-expressed with L1 and L2 (DNA 333:250:749 ng), His-tag capture on SPR chip, light chain tags detected with anti-HA/anti-FLAG; competitor L2 Q124K_V133G_Q160K_S176R
# [20] = target: D3H44 Fab heavy chain L124E_L143D_K145T, C-terminal ABD2-His6 tag; assay: LCCA co-expression, SPR tag read-out; DNA 1:3 norm. to 1:1; competing light chain m11
# [21] = target: D3H44 Fab heavy chain L124E_L143E_K145M, C-terminal ABD2-His6 tag; assay: as above
# [22] = target: D3H44 Fab heavy chain L124E_L143E_K145T, C-terminal ABD2-His6 tag; assay: as above
# [23] = target: D3H44 Fab heavy chain L124R_Q179K, C-terminal ABD2-His6 tag; assay: as above
# [24] = target: D3H44 Fab heavy chain L124E_L143E_K145M, C-terminal ABD2-His6 tag; assay: LCCA co-expression, SPR tag read-out; DNA 1:3 norm. to 1:1; competing light chain m12
# [25] = target: D3H44 Fab heavy chain L124E_L143E_K145T, C-terminal ABD2-His6 tag; assay: as above
# [26] = target: D3H44 Fab heavy chain L124R_Q179K, C-terminal ABD2-His6 tag; assay: as above
# [27] = target: D3H44 Fab heavy chain L124E_L143E_K145T, C-terminal ABD2-His6 tag; assay: LCCA co-expression, SPR tag read-out; DNA 1:3 norm. to 1:1; competing light chain m14
# [28] = target: D3H44 Fab heavy chain L124R_Q179K, C-terminal ABD2-His6 tag; assay: as above
# [29] = target: D3H44 Fab heavy chain L124E_L143D_K145M, C-terminal ABD2-His6 tag; assay: LCCA (co-expression, SPR read-out of light chain tags), L1:L2 DNA 1:3 normalised to 1:1; competitor m13
# [30] = target: D3H44 Fab heavy chain L124R_Q179K, C-terminal ABD2-His6 tag; assay: as above
# [31] = target: D3H44 Fab heavy chain L124E_L143D_K145M, C-terminal ABD2-His6 tag; assay: LCCA (co-expression, SPR read-out of light chain tags), L1:L2 DNA 1:3 normalised to 1:1; competitor m14
# [32] = target: D3H44 Fab heavy chain L124E_L143D_K145T, C-terminal ABD2-His6 tag; assay: as above
# [33] = target: D3H44 Fab heavy chain L124R_Q179K, C-terminal ABD2-His6 tag; assay: as above
# [34] = target: D3H44 Fab heavy chain L124E_L143E_K145T, C-terminal ABD2-His6 tag; assay: LCCA set 9271 (co-expression; SPR read-out of light-chain tags; L1:L2 DNA 1:3, normalized to 1:1); competing light chain m17
# [35] = target: D3H44 Fab heavy chain L124R_D146N_Q179K, C-terminal ABD2-His6 tag; assay: LCCA set 9350 (co-expression; SPR read-out of light-chain tags; L1:L2 DNA 1:3, normalized to 1:1); competing light chain m17
substance,measurement,setting,value
D3H44 light chain Q124E_V133G_S176D_T178D_T180E,H1L1:H1L2 normalized median ratio (% of heavy chain paired),[1],8
same,H2L2:H2L1 normalized median ratio (% of heavy chain paired),[2],92
same,H2L2:H2L1 normalized median ratio (% of heavy chain paired),[3],92
same,"median LCCA performance normalized to a L1:L2 DNA ratio of 1:1 (ratio H1-L1:H1-L2), H1-L1 share (ratio part of 100)",[4],95
same,"median LCCA performance normalized to a L1:L2 DNA ratio of 1:1 (ratio H1-L1:H1-L2), H1-L1 share (ratio part of 100)",[5],94
same,"median LCCA performance normalized to a L1:L2 DNA ratio of 1:1 (ratio H1-L1:H1-L2), H1-L2 share (ratio part of 100)",[6],15
D3H44 Fab heterodimer H1L1 of LCCA Set # 9104 (H1 L124E; L1 S131T_V133G_S176R_T178Y),Kd,[7],0.16 nM
same,Change in median values of KD compared to wild type (-(log(KD design)-log(KD wt))),[8],-0.01 log
D3H44 light chain V133G_S176D_T178D_T180E,H1L1:H1L2 normalized median ratio (% of heavy chain paired),[1],6
same,H1L1:H1L2 normalized median ratio (% of heavy chain paired),[9],5
same,H2L2:H2L1 normalized median ratio (% of heavy chain paired),[3],88
same,H1L1:H1L2 normalized median ratio (% of heavy chain paired),[10],4
same,H2L2:H2L1 normalized median ratio (% of heavy chain paired),[11],85
same,"median LCCA performance normalized to a L1:L2 DNA ratio of 1:1 (ratio H1-L1:H1-L2), H1-L2 share (ratio part of 100)",[6],18
same,"median LCCA performance normalized to a L1:L2 DNA ratio of 1:1 (ratio H1-L1:H1-L2), H1-L2 share (ratio part of 100)",[12],37
same,"median LCCA performance normalized to a L1:L2 DNA ratio of 1:1 (ratio H1-L1:H1-L2), H1-L2 share (ratio part of 100)",[13],38
D3H44 light chain V133G_S176D_T178E_T180E,H1L1:H1L2 normalized median ratio (% of heavy chain paired),[1],8
same,H1L1:H1L2 normalized median ratio (% of heavy chain paired),[9],5
same,H2L2:H2L1 normalized median ratio (% of heavy chain paired),[14],83
same,H2L2:H2L1 normalized median ratio (% of heavy chain paired),[15],93
same,H1L1:H1L2 normalized median ratio (% of heavy chain paired),[10],3
same,H2L2:H2L1 normalized median ratio (% of heavy chain paired),[16],80
same,H1L1:H1L2 normalized median ratio (% of heavy chain paired),[17],5
same,H2L2:H2L1 normalized median ratio (% of heavy chain paired),[18],92
same,"median LCCA performance normalized to a L1:L2 DNA ratio of 1:1 (ratio H1-L1:H1-L2), H1-L1 share (ratio part of 100)",[19],74
"D3H44 light chain Q124K_V133G_Q160K_S176R, N-terminal HA or FLAG tag",H1L1:H1L2 normalized median ratio (% (ratio normalized to 100)),[20],94
same,H1L1:H1L2 normalized median scalar value ln(r1/f1),[20],2.69
same,H1L1:H1L2 normalized median ratio (% (ratio normalized to 100)),[21],94
same,H1L1:H1L2 normalized median scalar value ln(r1/f1),[21],2.72
same,H1L1:H1L2 normalized median ratio (% (ratio normalized to 100)),[22],95
same,H1L1:H1L2 normalized median scalar value ln(r1/f1),[22],3
same,H2L2:H2L1 normalized median ratio (% (ratio normalized to 100)),[23],8
same,H1L1:H1L2 normalized median ratio (% (ratio normalized to 100)),[24],92
same,H1L1:H1L2 normalized median ratio (% (ratio normalized to 100)),[25],95
same,H1L1:H1L2 normalized median scalar value ln(r1/f1),[25],2.92
same,H2L2:H2L1 normalized median ratio (% (ratio normalized to 100)),[26],8
same,H1L1:H1L2 normalized median ratio (% (ratio normalized to 100)),[27],94
same,H2L2:H2L1 normalized median ratio (% (ratio normalized to 100)),[28],10
same,H1L1:H1L2 normalized median ratio,[29],91%
same,H1L1:H1L2 normalized median scalar value ln(r1/f1),[29],2.36
same,H2L2:H2L1 normalized median ratio,[30],8%
same,H1L1:H1L2 normalized median ratio,[31],92%
same,H1L1:H1L2 normalized median ratio,[32],92%
same,H2L2:H2L1 normalized median ratio,[33],8%
same,H1L1:H1L2 normalized median ratio (H1L1 part),[34],95%
same,H1L1:H1L2 normalized median scalar value ln(r1/f1),[34],2.92
same,H2L2:H2L1 normalized median ratio (H2L1 part),[35],18%

# From patent US11306156
